Laboratory results reported in patent publication US7582437 (JAPAN SCIENCE AND TECHNOLOGY AGENCY, dated 2009).
Numbering of substitutions follows the chain as printed. Names and notes keep the numbering of the source. Values belong to the binder of their own block, whether it stands above or below them.

Experiments:
[1] = target: T1, human TLR3 (human, UniProt O15455 24-904); experiment: stated in the description with reference to the Examples (reporter gene assays)
T1 construct: whole, on cells; also called human Toll-like receptor 3

[2] = target: T1, human TLR3; experiment: stated in the description with reference to the Examples (dominant-negative effect in reporter gene assays)
Protocol: By using the gene transfecting cationic lipid "Lipfectamine 2000" reagent (made by Gibco), HEK293 cells in 24-well plates were transfected with (i) 0.1 µg of luciferase-linked NF-κB reporter gene (made by Stratagene) (c.f. FIG. 13(b)) or 0.1 µg of p125.luc reporter plasmid (c.f. FIG. 13(a)), (ii) TICAM-1 TIR (0.1 ng and 10 ng) or a plasmid (0, 0.2 µg, 0.6 µg), the plasmid encoding TICAM-1 TIR mutant TIR P434H of TICAM-1 TIR, and (iii) empty vector, TLR2 (0.1 µg), or TLR3 (0.6 µg).
A total amount (0.8 µg to 1.0 µg) of transfected DNA was adjusted by adding the empty vectors. Moreover, plasmid vector pCMVβ (made by Clontech; 5 ng) was used as an internal control.
Twenty four hours after the transfection, the cells were stimulated for 6 hours with 100 nM of MALP-2 (TLR2 stimulation) or 10 µg/ml of poly (I:C) (TLR3 stimulation), and then lyzed with the lysis buffer (made by Promega). Luciferase activity that indicate the interferon β activation or NF-κB activation caused by stimulation after the transfection in thus prepared lysates were measured according to the manufacturer's instructions. This experiment was repeated three times. Representing values thereof were considered as measurement values. Level of the interferon β activation is illustrated in FIG. 13(a), and level of the NF-κB activation is illustrated in FIG. 13(b).

- binding result [1]: binds
B1: human TICAM-1 TIR (mutant made of almost only the TIR domain, amino acids 387 to 556 of human TICAM-1) (other)
chain: ESSSEQKFYNFVILHARADEHIALRVREKLEALGVPDGATFCEDFQVPGRGELSCLQDAIDHSAFIILLLTSNFDCRLSLHQVNQAMMSNLTRQGSPDCVIPFLPLESSPAQLSSDTASLLSGLVRLDEHSQIFARKVANTFKPHRLQARKAMWRKEQDTRALREQSQHL
notes: Expressed in HEK293 cells from pEFBOS; also called TIR of TICAM-1; pEFBOS-TICAM-1 (TIR)

- binding result [2]: binds
B2: dominant-negative mutant P434H of human TICAM-1 TIR (other)
chain: B1 chain with P48H
notes: Expressed in HEK293 cells from pEFBOS with an initiator Met; also called TIR P434H
